# T1: N-terminally FLAG tagged Tgl2 (S. cerevisiae, UniProt P54857 1-326)
# T1 sequence (looked up): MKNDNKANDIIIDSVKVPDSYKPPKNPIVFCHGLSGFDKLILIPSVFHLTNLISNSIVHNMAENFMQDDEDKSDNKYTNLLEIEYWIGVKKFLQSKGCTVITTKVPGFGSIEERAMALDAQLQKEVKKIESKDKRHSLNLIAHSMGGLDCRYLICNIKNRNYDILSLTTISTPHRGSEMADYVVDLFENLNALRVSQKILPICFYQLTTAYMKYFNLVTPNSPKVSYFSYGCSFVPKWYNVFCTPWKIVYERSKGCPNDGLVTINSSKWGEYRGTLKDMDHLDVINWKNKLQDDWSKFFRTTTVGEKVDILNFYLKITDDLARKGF
# B1: N-terminally HA tagged Tgl2 (natural protein, S. cerevisiae, UniProt P54857 1-326, looked up)
# chain: MKNDNKANDIIIDSVKVPDSYKPPKNPIVFCHGLSGFDKLILIPSVFHLTNLISNSIVHNMAENFMQDDEDKSDNKYTNLLEIEYWIGVKKFLQSKGCTVITTKVPGFGSIEERAMALDAQLQKEVKKIESKDKRHSLNLIAHSMGGLDCRYLICNIKNRNYDILSLTTISTPHRGSEMADYVVDLFENLNALRVSQKILPICFYQLTTAYMKYFNLVTPNSPKVSYFSYGCSFVPKWYNVFCTPWKIVYERSKGCPNDGLVTINSSKWGEYRGTLKDMDHLDVINWKNKLQDDWSKFFRTTTVGEKVDILNFYLKITDDLARKGF
# Legend:
# [1] = target: T1, N-terminally FLAG tagged Tgl2; test: native gel or EMSA
# [2] = target: the molecule itself; test: non-reducing SDS-PAGE with immunodecoration
binder,measurement,setting,value
B1,stoichiometry N,[1],≥ 2
same,stoichiometry N,[2],2
